The supplement of paper PMC7125110
± gives the standard error. This sample holds only a part of the variants without activity.

B1: glmS ribozyme (parent)
chain: AUAAAAGCGCCAGAACUACAGAAAUGUAGUUGACGAGGAGGAGGUUUAUCGAAUUUUCGGCGGAUGCCUCCAAA

Legend:
Conditions in all cases: with glucosamine-6-phosphate
glucosamine-6-phosphate [1] = variants of: B1; assay: self-cleavage kobs at 640 uM GlcN6P; higher = faster cleavage; RNA array
Method in brief: (§1)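 Barcoded glmS ribozyme variants on sequenced MiSeq chips were transcribed in situ by E. coli RNA polymerase and tracked through a hybridised Cy3 probe at 37 °C. Glucosamine-6-phosphate (40 μM to 10 mM) in HEPES/KCl/Mg(OAc)2 buffer was flowed in, and tiles were imaged over ~14 h. Signals were normalised to baseline and to non-cleaving reference variants; per-tile medians were fit to one- or two-exponential decays to give kobs. kcat and KM came from weighted Michaelis–Menten fits across concentrations.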

glucosamine-6-phosphate [2] = variants of: B1; assay: self-cleavage kobs at 2500 uM GlcN6P; higher = faster cleavage; RNA array
Method in brief: as §1

glucosamine-6-phosphate [3] = variants of: B1; assay: self-cleavage kobs at 10000 uM GlcN6P; higher = faster cleavage; RNA array
Method in brief: as §1

Variant	self-cleavage kobs at 640 uM GlcN6P (glucosamine-6-phosphate [1]) [s⁻¹]	self-cleavage kobs at 2500 uM GlcN6P (glucosamine-6-phosphate [2]) [s⁻¹]	self-cleavage kobs at 10000 uM GlcN6P (glucosamine-6-phosphate [3]) [s⁻¹]
U31G G37C U69G	9.22e-05 ± 3.2e-05		
G29C G43U A48G C71A	< 1e-05	< 1e-05	
C19A A33U	4.59e-05 ± 2.2e-05	0.000114 ± 2.6e-05	
A14U G41A U45A	6.25e-05 ± 2.9e-05	0.000195 ± 5.4e-05	
G32U G41A C68A	< 1e-05		
U31G A36U G38U A48U A53C G59C A64C	< 1e-05		
G29C G51U	< 1e-05		
G29A U30G A52G	7.23e-05 ± 1.9e-05	0.000399 ± 9.4e-05	
C16U A39G G40A A42G G43A U45G	0.00638 ± 0.0016	0.0072 ± 0.0024	
A14G G32C U45A C70G	< 1e-05		
C16A G32A C70G	7.42e-05 ± 3e-05		0.000127 ± 3.4e-05
C16G G35C A48G U57C G62A C67A U69A	< 1e-05	< 1e-05	< 1e-05
A14G U31A G41A C71U	0.000186 ± 7.9e-05	0.000396 ± 0.00011	
G32A G43A G63A A64G	< 1e-05	< 1e-05	
G29A G32A U57C U69C	9.71e-05 ± 3.8e-05		
G26U U31C U47A A64G	0.000213 ± 6.9e-05		
A14U A36U U69G	0.000169 ± 6.2e-05	0.000194 ± 5.8e-05	5.55e-05 ± 1.8e-05
A14U A15U G29C C67U C70G	0.00266 ± 0.001		
A15G C16G U46G	9.78e-05 ± 2.8e-05	0.000248 ± 9.3e-05	
G29A A39G U54A	0.00173 ± 0.00059	0.00457 ± 0.0012	
G32C G35U G59A	< 1e-05	< 1e-05	
C16G A48G U56G G59A	< 1e-05		

Variant	self-cleavage kobs at 640 uM GlcN6P (glucosamine-6-phosphate [1]) [s⁻¹]	self-cleavage kobs at 2500 uM GlcN6P (glucosamine-6-phosphate [2]) [s⁻¹]	self-cleavage kobs at 10000 uM GlcN6P (glucosamine-6-phosphate [3]) [s⁻¹]
U30C A53U U57G A64C U69G	0.000129 ± 3.2e-05	0.000128 ± 5.2e-05	
C16U G51A G63A G66A	< 1e-05		
G32A A36G A39C G41U G43U	< 1e-05		
U30C U31C G59U C61G C70G	< 1e-05		
U30C G32U U47A	0.000115 ± 3.3e-05	0.000106 ± 3e-05	
C16U A33G C50U U54G	< 1e-05	< 1e-05	< 1e-05
A15C G32A G38U	< 1e-05		
A14U A15C A33C C61G U65G	< 1e-05	< 1e-05	
C16G G41C G62A A64G	< 1e-05	< 1e-05	
C16U G32U C58G	0.00017 ± 3.4e-05		
G29A G40C	5.68e-05 ± 1.5e-05	0.000243 ± 4.7e-05	
U30A G38A C50A G66U	< 1e-05		
G29A G35U	< 1e-05	< 1e-05	< 1e-05
G29C G37U U46A	< 1e-05	< 1e-05	< 1e-05
A23C C68U	0.00205 ± 0.00047	0.00111 ± 0.00026	
A15U G41U G66U C70U	4.78e-05 ± 1.4e-05		
G21U G26U U65G G66U U69G	0.000207 ± 8.9e-05		
C16U U31C G32C G44A U49G C61G U65A	< 1e-05	< 1e-05	
G29C G38U A39U C50A	< 1e-05	< 1e-05	
C16U A33C	9.7e-05 ± 3.1e-05	8.5e-05 ± 2.1e-05	0.000247 ± 3.7e-05
U31C G60U C67G	< 1e-05	< 1e-05	
A15U A33G A64G C67A C70A C71U	9.67e-05 ± 3.1e-05		

Variant	self-cleavage kobs at 640 uM GlcN6P (glucosamine-6-phosphate [1]) [s⁻¹]	self-cleavage kobs at 2500 uM GlcN6P (glucosamine-6-phosphate [2]) [s⁻¹]	self-cleavage kobs at 10000 uM GlcN6P (glucosamine-6-phosphate [3]) [s⁻¹]
A15C A48U U49G G62U	< 1e-05		
U30G U56A C68G	5.24e-05 ± 2.3e-05		
A15C A33U G40A	< 1e-05		
U30C G37U C58A C68G	7.09e-05 ± 2.2e-05	0.000165 ± 3.6e-05	
G29U G32A G44A A64U	< 1e-05		
C16U A39G U55C	0.0143 ± 0.0027		
U30C U46G C70U	4.5e-05 ± 2e-05		
A15G A48U U54A	0.000159 ± 3.2e-05	0.000106 ± 4.2e-05	
C16G A33U G37U C68G C71U	8.54e-05 ± 3.1e-05		
A14G U30A A36U C58U G66U	< 1e-05		
U30G G41U C50A	< 1e-05	< 1e-05	
A15U G35U G59A	< 1e-05		
G29U A53C G62C	< 1e-05		
G29C A39C C61G	< 1e-05		
G29U G35C A52G	< 1e-05	< 1e-05	
G29C G44C C67G	0.000127 ± 3.8e-05	0.000256 ± 0.00011	
G29U G32U C58U C67A	3.68e-05 ± 1.8e-05	8.93e-05 ± 2.6e-05	
U31G C34G U65A	< 1e-05		
U30G A39G G41U A48G U69C	< 1e-05	< 1e-05	< 1e-05
A14G G32A G60A C61A C67A C70U	0.000302 ± 0.00012		
